Experimental data reported in the DeepSol protein solubility set.

test: soluble on expression in E. coli; label from the status in PepcDB or PDB records

Row | Sequence | soluble on expression in E. coli
1 | MSNGNTDPVFDFEDALDQTEMAQLAVDELKKIPEVNTLFAERWLPAPFNLDDLAKLPEGTLGHVYAIEMKARGFDPYFYKKVPVVDDISYLKMLWRSTHDIYHVVAGFDTDGIGEIGLQAFVLAQTPIPISVMLVSFGMVMTSLYQPAKFQDLMAEIARGYSLGSHTPRKLIAQKWDQFWDVPVIEIRECLGMNTVKQRERALEHHHHHH | not soluble
2 | MGSDKIHHHHHHMAQPGKILKEQKYDRQLRLWGDHGQEALESAHVCLINATATGTEILKNLVLPGIGSFTIIDGNLVSGEDAGNNFFLQKSSIGKNRAQAAMEFLQELNSDVSGSFVEESPENLLDNDPSFFCRFTIVVATQLLESTLLRLADVLWNSQIPLLICRTYGLVGYMRIIIKEHPVIESHPDNALEDLRLDKPFPELREHLQSYDLDHMEKKDHSHTPWIVIIAKYLAQWYNETNGRIPKSYKEKEDFRDLIRQGILKNENGAPEDEENFEEAIKNVNTALNTTQIPSSIEDIFNDDRCINITKQTPTFWILARALKEFVAKEGQGNLPVRGTIPDMIADSNKYIKLQNVYREKAKKDAAAVGNHVAKLLQSVGQAPESISEKELKLLCSNSAFLRVVRCRSLAEEYGLDTVNKDEIISSMDNPDNEIVLYLMLRAVDRFHKQHGRYPGVSNYQVEEDIGKLKSCLTGFLQEYGLSVMVKDDYVHEFCRYGAAEPHTIAAFLGGAAAQEVIKIITKQFVIFNNTYIYSGMSQTSATFQL | not soluble
3 | MAHHHHHHMLSASSSSSELETADDASVEHAALAYERVRREHALQRYLKAREAYEVACIARERRQLVVQSHNHTLRLLGQVVCDVKAVVDGTLKEGLSVRESTATAAEMLLASSCYKRAERGLVTLLAHEGRQHEVLRAATSPATETSRIPQVFSSGSRAEKPVASSPAKHMLRPLLLLCEWRLDYATLLCRQRLPLFSELARAQRVVSNSRESAREARGRMSAPTTPVVQRCQVQVAEARASLAKARAFQRSLKDRLHQLHQMLSRSAPVHAESGVFVDAGVAEEIQARLRQELAVGHVTLLRILCESLSGAFDERGRLTAL | not soluble
4 | EVKVEESGGGLVQPGGSMKLSCVASGFTFSNYWMEWVRQSPEKGLEWVAEIRLKSNNYATHYAESVKGRFTISRDDSKSSVYLQMNNLRAEDTGIYYCTRGGAVGAMDYWGQGTSVTVSSATTTAPSVYPLVPGCSDTSGSSVTLGCLVKGYFPEPVTVKWNYGALSSGVRTVSSVLQSGFYSLSSLVTVPSSTWPSQTVICNVAHPASKVDLIKEPSGP | soluble
5 | MPMPFTRDDDYDSDPEVQAEKEMAKKDPIGFAIDSSSLTSMKKAAAAAAKDQVSTTPPNLVIGSNGGAGTIATVPRSKSQDEIVKKQKTAGQSKALKKQRSRGISGCSSRKYSGYDDEMDEDFGDDEDYDHYGGQEVFDEDEEDTFVAKK | not soluble
6 | MTLKLIENLQKLGFTGNEAKVYSSLVCLKQAKASEIAENAGVPRPKIYGTLRTMEKKGYVRIIEGEPTIFCCIQPEELILRLKSDFLLFLRETASELNSLNPGNSDFVSEGFYRERIKV | not soluble
7 | MEYAADGDTVFLESIENMEVTRLDSAIIRNGTFSFKGRQDSTVARYLSCMTATDVFSIPFFLENGHIEVKMKSGNESVTGTPTNDIYQEIRSKMAEIMNKMNEIYSDSTLTEELAEEKMDQMEREYTIAQKEAVKKNIANPVGVFLFKEQYFENSLAENQALFRQIPPKYLNDPVLMGMQKQMESQEKTDMNTPFT | not soluble
8 | MGNQRHHYNDYEDVRMLKWVARNDKSLGPFGIITWQLYVEAYNCPYSVQSLCGRMRRQIVPNIDYYSRHLKSSDLISLERRFGSRLGAETRKYIRNLAVKTVKIVQVVASRPVEKNSEIEVQKVASLELQAAPTAPTTSAAQLGKTKSPGARTQRIERNDELSRDVFESSCASTIVEPEPPQEEPPQRSHNWKTEMRKIAGQAAQAINDLIRQTVENNDFNKKMFAELENQQNLDHLYGKMFDDPNKADWIMIDVKKFTENHLRMQYFRKIREELHKRFTNQHIIRAVFCFFQFFEYYVTVCVDESTDNYILLMNKVLEMSIKLLPLYIVHC | not soluble
9 | MGSDKIHHHHHHMSRTITIDPVTRIEGHATITIRLDDAGSVADARLHVTEFRGFEAFCVGRSIWEMPGITARICGICPISHSIASARAGDAILGVDIPPAAEQLRRIANLASLIQSHALSFFHLCAADLLLGMDHDPSRRSLWGLLESRPDVARRGIRLRQIGQQIVSNLAGERVHPSWAVPGGVREPLDAERRRKVVELLPEGIAIIRSAFELLDEIYGRHGAEVGTYGDFPSLFAGLVGEDGGLEHYDGMLRFTDSSGAVVEEVPPDHYDLAIGERSEPWSYMKFPFYRNHAGRDGGGMFRVGPLARLNLCERAGTPEADRELQTFRQLRGTGGVVTGSFHYHHARLIEILHALERIGELLDDPAILDRHVRSEAGVNRRHGVGFCEAPRGTLFHDYEVDDDGLILRLNLLIATGQNNLAMNRTILEVARSHIKGGKVSEGILNRIEHGIRAYDPCLSCATHVYGRMPFQVLLLAPDGTVVDEIAS | not soluble
10 | MKVFDVHKFDMKKEQDFLQVQFNLKNRINLSPTIHPDSINTGAGVDLAYWEQDGEPYGVCCIIVIDADTKEVIEKVHSMGRISVPYVSGFLAFRELPLIIEAAKKLETEPDVFLFDGNGYLHYNHMGVATHAAFFLGKPTIGIAKTYLKIKGCDFVTPEIEVGAYTDIIIDGEVYGRALRTRRDVKPIFLSCGNYIDLDSSYQITMSLINQESRLPIPVRLADLETHVLRTFYQKNHVLEHHHHHH | soluble
11 | IVPTRELENVFLGRCKDYEITRYLDILPRVRSDCSALWKDFFKAFSFKNPCDLDLGSYKDFFTSAQQQLPKNKVMFWSGVYDEAHDYANTGRKYITLEDTLPGYMLNSLVWCGQRANPGFNEKVCPDFKTCPVQARESFWGMASSSYAHSAEGEVTYMVDGSNPKVPAYRPDSFFGKYALPNLTNKVTRVKVIVLHRLGEKIIEKCGAGSLLDLEKLVKAKHFAFDCVENPRAVLFLLCSDNPNARECRLAKRFYRIA | soluble
12 | HLVCPMSKSPYVDPHKSGHEIWEEFSMSFTPAVKEVVEFAKRIPGFRDLSQHDQVNLLKAGTFEVLMVRFASLFDAKERTVTFLSGKKYSVDDLHSMGAGDLLNSMFEFSEKLNALQLSDEEMSLFTAVVLVSADRSGIENVNSVEALQETLIRALRTLIMKNHPNEASIFTKLLLKLPDLRSLNNMHSEELLAFKVHP | soluble
13 | MSDFRLKVFLSVAKNLSFTKASQELFVSQPAITKHIQELETCYQVRLFDRQGNKISLTEAGKLLQEHSEKILEDYKRLEYEMHLLHNEYIGDLKLGASTTISQYVLPPLLANFIAKFPQVNLSLLNGNSREIEAALQEHRIDLGLVEGICRLPNLRYTTFLQDELVAVVHTGSKLSLPDEITPEDLSRIPLVLRERGSGTLDVFERALSEHNMKLSSLNVLLYLGSTESIKLFLEHTDCIGIVSIRSISRELLSGTFRVIEIKGMPMLREFCFAQPQGQESGLSQVLMQFAMHHNKKL | not soluble
14 | MGHHHHHHSHMFPCQHCERKFTTKQGLERHMHIHISTVNHAFKCKYCGKAFGTQINRRRHERRHEAGLKRKPSQ | soluble
15 | GSHMASMTGGQQMGRGSMLPRLICINDYEQHAKSVLPKSIYDYYRSGANDEETLADNIAAFSRWKLYPRMLRNVAETDLSTSVLGQRVSMPICVGATAMQRMAHVDGELATVRACQSLGTGMMLSSWATSSIEEVAEAGPEALRWLQLYIYKDREVTKKLVRQAEKMGYKAIFVTVDTPYLGNRLDDVRNRFKLPPQLRMKNFETSTLSFSPEENFGDDSGLAAYVAKAIDPSISWEDIKWLRRLTSLPIVAKGILRGDDAREAVKHGLNGILVSNHGARQLDGVPATIDVLPEIVEAVEGKVEVFLDGGVRKGTDVLKALALGAKAVFVGRPIVWGLAFQGEKGVQDVLEILKEEFRLAMALSGCQNVKVIDKTLVRKNPLAVSKI | soluble
16 | MGSDKIHHHHHHMKGFDAKFRDFPDYIVGITKEIWEDRGIATLHEYYAEDIVVRSPASVVTGNQGVIAATMATLAEFPDRVLLGEDVIWSGTPEDGMLSSHRIISQATHAGDGVYGAATGKRLEYRILADCHAKNNAIDDEWLIRDQTAIVTQLGWTPRDYAADLIMREGGPEACVKPLTPDTDQPGPYKGRGNDNPWGERLADVLTRIMGADMAAIPEVYDRACHLEYPGHVTAHGPAEADRFWMSLRAAFPNAAFTIDHQIGREDDHMPPRAAIRWSLHGTHEGWGGFGQPTGAEVYIVGITHAEFGQVGTAEPKLRREYTLFDETSVWKQILLHEAAK | not soluble
